Values quoted from earlier work as cited in publication PMC9897510.

Assays:
[1] = target: FhuA (Escherichia coli) (UniProt P06971)
[2] = target: atrial natriuretic factor receptor (UniProt P16066)
[3] = target: FOXM1c (Homo sapiens) (UniProt Q08050)
[4] = target: FOXM1b (Homo sapiens) (UniProt Q08050)

Chain of UniProt P06971 (P06971 34-747): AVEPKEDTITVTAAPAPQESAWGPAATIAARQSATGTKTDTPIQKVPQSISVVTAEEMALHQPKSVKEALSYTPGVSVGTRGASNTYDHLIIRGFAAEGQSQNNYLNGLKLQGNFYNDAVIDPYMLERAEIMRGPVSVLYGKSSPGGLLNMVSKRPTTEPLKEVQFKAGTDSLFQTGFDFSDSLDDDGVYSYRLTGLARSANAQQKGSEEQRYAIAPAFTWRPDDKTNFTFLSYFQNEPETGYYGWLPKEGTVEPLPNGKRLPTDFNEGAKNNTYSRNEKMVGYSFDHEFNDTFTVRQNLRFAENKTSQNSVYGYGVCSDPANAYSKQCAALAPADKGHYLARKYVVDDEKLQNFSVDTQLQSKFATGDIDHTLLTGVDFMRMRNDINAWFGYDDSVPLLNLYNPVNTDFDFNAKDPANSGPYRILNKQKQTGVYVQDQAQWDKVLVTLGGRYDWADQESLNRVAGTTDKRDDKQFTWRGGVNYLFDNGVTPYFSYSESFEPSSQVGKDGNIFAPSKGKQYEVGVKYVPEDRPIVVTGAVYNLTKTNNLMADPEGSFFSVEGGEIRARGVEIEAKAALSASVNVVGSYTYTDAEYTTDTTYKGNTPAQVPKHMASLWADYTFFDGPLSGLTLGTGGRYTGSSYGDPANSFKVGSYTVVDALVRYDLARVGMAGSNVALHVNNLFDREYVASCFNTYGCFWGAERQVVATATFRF
Chain of UniProt P16066 (P16066 33-1061): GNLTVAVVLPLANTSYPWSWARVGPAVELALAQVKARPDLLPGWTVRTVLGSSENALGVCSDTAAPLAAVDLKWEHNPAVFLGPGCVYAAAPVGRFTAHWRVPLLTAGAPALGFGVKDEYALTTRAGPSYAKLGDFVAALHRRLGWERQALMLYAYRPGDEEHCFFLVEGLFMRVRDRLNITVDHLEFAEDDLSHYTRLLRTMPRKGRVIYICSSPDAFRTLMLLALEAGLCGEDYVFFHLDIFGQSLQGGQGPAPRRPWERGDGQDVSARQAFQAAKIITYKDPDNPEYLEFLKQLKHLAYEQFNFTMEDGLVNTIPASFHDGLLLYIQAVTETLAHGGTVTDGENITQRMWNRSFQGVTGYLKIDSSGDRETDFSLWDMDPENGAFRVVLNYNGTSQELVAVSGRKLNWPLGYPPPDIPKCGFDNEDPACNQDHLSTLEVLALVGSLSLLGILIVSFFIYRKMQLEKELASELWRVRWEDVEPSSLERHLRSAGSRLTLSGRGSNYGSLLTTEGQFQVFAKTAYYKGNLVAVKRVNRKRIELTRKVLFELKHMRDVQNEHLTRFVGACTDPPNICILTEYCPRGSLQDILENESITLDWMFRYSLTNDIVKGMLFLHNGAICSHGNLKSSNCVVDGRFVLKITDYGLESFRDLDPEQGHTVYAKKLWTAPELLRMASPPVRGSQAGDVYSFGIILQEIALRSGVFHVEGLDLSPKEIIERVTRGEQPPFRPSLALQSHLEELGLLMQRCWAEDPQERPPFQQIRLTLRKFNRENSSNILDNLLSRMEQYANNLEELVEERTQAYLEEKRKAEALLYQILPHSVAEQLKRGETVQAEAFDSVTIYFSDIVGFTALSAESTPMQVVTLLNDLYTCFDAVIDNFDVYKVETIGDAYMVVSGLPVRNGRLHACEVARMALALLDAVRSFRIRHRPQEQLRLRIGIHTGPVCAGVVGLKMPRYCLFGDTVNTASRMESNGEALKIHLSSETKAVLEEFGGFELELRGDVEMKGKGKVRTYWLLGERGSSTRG

In the case of Microcin J25 (from UniProt Q9X2V7), the Kd [1] is given as 1.2 µM.
For anantin (from UniProt Q7M0J9), the Kd [2] is listed as 0.6 µM.
In the case of thiostrepton (from UniProt P0C8P8), the Ki [3] is listed as 11 µM and the Ki [4] is listed as 31 µM.
